In the Human Domainome abundance scans (Beltran et al. 2025):
± gives the uncertainty stated by the source.

B1: Protein S100-G, residues 1 to 79; numbered along this chain, P02633 (parent)
chain: MSAKKSPEELKGIFEKYAAKEGDPNQLSKEELKLLLQTEFPSLLKGPSTLDELFEELDKNGDGEVSFEEFQVLVKKISQ

Variants of: B1
Test: abundance fitness (aPCA) (normalised: wild type 0, dead -1); higher = more abundant; growth selection in yeast, the domain comes from the species named
Settings: Bos taurus

Row | Variant | abundance fitness
1 | MSAKKSPEELKGIFEKYAAKEGDPNQLSKEELKLLLQTEFPSLLKGPSTLDECFEELDKNGDGEVSFEEFQVLVKKISQ | -0.048 ± 0.08
2 | MSAKKSPEELKGIFEKYAAKEGDPNQLSKEELKLLLQTEFPSLLKGPSTLDEFFEELDKNGDGEVSFEEFQVLVKKISQ | 0.077 ± 0.087
3 | MSAKKSPEELKGIFEKYAAKEGDPNQLSKEELKLLLQTEFPSLLKGPSTLDEEFEELDKNGDGEVSFEEFQVLVKKISQ | 0.031 ± 0.088
4 | MSAKKSPEELKGIFEKYAAKEGDPNQLSKEELKLLLQTEFPSLLKGPSTLDEDFEELDKNGDGEVSFEEFQVLVKKISQ | 0.053 ± 0.094
5 | MSAKKSPEELKGIFEKYAAKEGDPNQLSKEELKLLLQTEFPSLLKGPSTLDEAFEELDKNGDGEVSFEEFQVLVKKISQ | 0.055 ± 0.069
6 | MSAKKSPEELKGIFEKYAAKEGDPNQLSKEELKLLLQTEFPSLLKGPSTLWELFEELDKNGDGEVSFEEFQVLVKKISQ | -0.142 ± 0.081
7 | MSAKKSPEELKGIFEKYAAKEGDPNQLSKEELKLLLQTEFPSLLKGPSTLVELFEELDKNGDGEVSFEEFQVLVKKISQ | -0.032 ± 0.073
8 | MSAKKSPEELKGIFEKYAAKEGDPNQLSKEELKLLLQTEFPSLLKGPSTLYELFEELDKNGDGEVSFEEFQVLVKKISQ | -0.145 ± 0.078
9 | MSAKKSPEELKGIFEKYAAKEGDPNQLSKEELKLLLQTEFPSLLKGPSTLCELFEELDKNGDGEVSFEEFQVLVKKISQ | 0.011 ± 0.084
10 | MSAKKSPEELKGIFEKYAAKEGDPNQLSKEELKLLLQTEFPSLLKGPSTLGELFEELDKNGDGEVSFEEFQVLVKKISQ | -0.044 ± 0.076
11 | MSAKKSPEELKGIFEKYAAKEGDPNQLSKEELKLLLQTEFPSLLKGPSTLPELFEELDKNGDGEVSFEEFQVLVKKISQ | 0.032 ± 0.072
12 | MSAKKSPEELKGIFEKYAAKEGDPNQLSKEELKLLLQTEFPSLLKGPSTLQELFEELDKNGDGEVSFEEFQVLVKKISQ | -0.091 ± 0.081
13 | MSAKKSPEELKGIFEKYAAKEGDPNQLSKEELKLLLQTEFPSLLKGPSTLAELFEELDKNGDGEVSFEEFQVLVKKISQ | -0.032 ± 0.071
14 | MSAKKSPEELKGIFEKYAAKEGDPNQLSKEELKLLLQTEFPSLLKGPSTLRELFEELDKNGDGEVSFEEFQVLVKKISQ | -0.07 ± 0.062
15 | MSAKKSPEELKGIFEKYAAKEGDPNQLSKEELKLLLQTEFPSLLKGPSTLNELFEELDKNGDGEVSFEEFQVLVKKISQ | 0.032 ± 0.079
16 | MSAKKSPEELKGIFEKYAAKEGDPNQLSKEELKLLLQTEFPSLLKGPSTLMELFEELDKNGDGEVSFEEFQVLVKKISQ | 0.005 ± 0.082
17 | MSAKKSPEELKGIFEKYAAKEGDPNQLSKEELKLLLQTEFPSLLKGPSTLKELFEELDKNGDGEVSFEEFQVLVKKISQ | -0.043 ± 0.078
18 | MSAKKSPEELKGIFEKYAAKEGDPNQLSKEELKLLLQTEFPSLLKGPSTLIELFEELDKNGDGEVSFEEFQVLVKKISQ | -0.08 ± 0.086
19 | MSAKKSPEELKGIFEKYAAKEGDPNQLSKEELKLLLQTEFPSLLKGPSTLFELFEELDKNGDGEVSFEEFQVLVKKISQ | -0.121 ± 0.082
20 | MSAKKSPEELKGIFEKYAAKEGDPNQLSKEELKLLLQTEFPSLLKGPSTLSELFEELDKNGDGEVSFEEFQVLVKKISQ | -0.032 ± 0.062
21 | MSAKKSPEELKGIFEKYAAKEGDPNQLSKEELKLLLQTEFPSLLKGPSTLLELFEELDKNGDGEVSFEEFQVLVKKISQ | -0.072 ± 0.063
22 | MSAKKSPEELKGIFEKYAAKEGDPNQLSKEELKLLLQTEFPSLLKGPSTLEELFEELDKNGDGEVSFEEFQVLVKKISQ | -0.07 ± 0.093
23 | MSAKKSPEELKGIFEKYAAKEGDPNQLSKEELKLLLQTEFPSLLKGPSTSDELFEELDKNGDGEVSFEEFQVLVKKISQ | -0.034 ± 0.061

Row | Variant | abundance fitness
24 | MSAKKSPEELKGIFEKYAAKEGDPNQLSKEELKLLLQTEFPSLLKGPSTMDELFEELDKNGDGEVSFEEFQVLVKKISQ | -0.01 ± 0.077
25 | MSAKKSPEELKGIFEKYAAKEGDPNQLSKEELKLLLQTEFPSLLKGPSTTDELFEELDKNGDGEVSFEEFQVLVKKISQ | -0.013 ± 0.065
26 | MSAKKSPEELKGIFEKYAAKEGDPNQLSKEELKLLLQTEFPSLLKGPSTKDELFEELDKNGDGEVSFEEFQVLVKKISQ | -0.001 ± 0.07
27 | MSAKKSPEELKGIFEKYAAKEGDPNQLSKEELKLLLQTEFPSLLKGPSTVDELFEELDKNGDGEVSFEEFQVLVKKISQ | 0.082 ± 0.065
28 | MSAKKSPEELKGIFEKYAAKEGDPNQLSKEELKLLLQTEFPSLLKGPSTEDELFEELDKNGDGEVSFEEFQVLVKKISQ | 0.007 ± 0.076
29 | MSAKKSPEELKGIFEKYAAKEGDPNQLSKEELKLLLQTEFPSLLKGPSTQDELFEELDKNGDGEVSFEEFQVLVKKISQ | -0.028 ± 0.072
30 | MSAKKSPEELKGIFEKYAAKEGDPNQLSKEELKLLLQTEFPSLLKGPSTCDELFEELDKNGDGEVSFEEFQVLVKKISQ | 0.042 ± 0.085
31 | MSAKKSPEELKGIFEKYAAKEGDPNQLSKEELKLLLQTEFPSLLKGPSTRDELFEELDKNGDGEVSFEEFQVLVKKISQ | -0.044 ± 0.058
32 | MSAKKSPEELKGIFEKYAAKEGDPNQLSKEELKLLLQTEFPSLLKGPSTYDELFEELDKNGDGEVSFEEFQVLVKKISQ | 0.024 ± 0.085
33 | MSAKKSPEELKGIFEKYAAKEGDPNQLSKEELKLLLQTEFPSLLKGPSTNDELFEELDKNGDGEVSFEEFQVLVKKISQ | -0.094 ± 0.081
34 | MSAKKSPEELKGIFEKYAAKEGDPNQLSKEELKLLLQTEFPSLLKGPSTPDELFEELDKNGDGEVSFEEFQVLVKKISQ | -0.059 ± 0.07
35 | MSAKKSPEELKGIFEKYAAKEGDPNQLSKEELKLLLQTEFPSLLKGPSTGDELFEELDKNGDGEVSFEEFQVLVKKISQ | -0.078 ± 0.066
36 | MSAKKSPEELKGIFEKYAAKEGDPNQLSKEELKLLLQTEFPSLLKGPSTDDELFEELDKNGDGEVSFEEFQVLVKKISQ | -0.068 ± 0.082
37 | MSAKKSPEELKGIFEKYAAKEGDPNQLSKEELKLLLQTEFPSLLKGPSTFDELFEELDKNGDGEVSFEEFQVLVKKISQ | -0.026 ± 0.083
38 | MSAKKSPEELKGIFEKYAAKEGDPNQLSKEELKLLLQTEFPSLLKGPSTADELFEELDKNGDGEVSFEEFQVLVKKISQ | -0.044 ± 0.064
39 | MSAKKSPEELKGIFEKYAAKEGDPNQLSKEELKLLLQTEFPSLLKGPSTIDELFEELDKNGDGEVSFEEFQVLVKKISQ | 0.009 ± 0.077
40 | MSAKKSPEELKGIFEKYAAKEGDPNQLSKEELKLLLQTEFPSLLKGPSRLDELFEELDKNGDGEVSFEEFQVLVKKISQ | -0.057 ± 0.069
41 | MSAKKSPEELKGIFEKYAAKEGDPNQLSKEELKLLLQTEFPSLLKGPSYLDELFEELDKNGDGEVSFEEFQVLVKKISQ | 0 ± 0.073
42 | MSAKKSPEELKGIFEKYAAKEGDPNQLSKEELKLLLQTEFPSLLKGPSWLDELFEELDKNGDGEVSFEEFQVLVKKISQ | -0.076 ± 0.087
43 | MSAKKSPEELKGIFEKYAAKEGDPNQLSKEELKLLLQTEFPSLLKGPSKLDELFEELDKNGDGEVSFEEFQVLVKKISQ | -0.103 ± 0.068
44 | MSAKKSPEELKGIFEKYAAKEGDPNQLSKEELKLLLQTEFPSLLKGPSNLDELFEELDKNGDGEVSFEEFQVLVKKISQ | -0.109 ± 0.072
45 | MSAKKSPEELKGIFEKYAAKEGDPNQLSKEELKLLLQTEFPSLLKGPSMLDELFEELDKNGDGEVSFEEFQVLVKKISQ | -0.081 ± 0.07
46 | MSAKKSPEELKGIFEKYAAKEGDPNQLSKEELKLLLQTEFPSLLKGPSSLDELFEELDKNGDGEVSFEEFQVLVKKISQ | 0.018 ± 0.062

Row | Variant | abundance fitness
47 | MSAKKSPEELKGIFEKYAAKEGDPNQLSKEELKLLLQTEFPSLLKGPSPLDELFEELDKNGDGEVSFEEFQVLVKKISQ | -0.051 ± 0.063
48 | MSAKKSPEELKGIFEKYAAKEGDPNQLSKEELKLLLQTEFPSLLKGPSILDELFEELDKNGDGEVSFEEFQVLVKKISQ | -0.021 ± 0.078
49 | MSAKKSPEELKGIFEKYAAKEGDPNQLSKEELKLLLQTEFPSLLKGPSQLDELFEELDKNGDGEVSFEEFQVLVKKISQ | 0.04 ± 0.072
50 | MSAKKSPEELKGIFEKYAAKEGDPNQLSKEELKLLLQTEFPSLLKGPSHLDELFEELDKNGDGEVSFEEFQVLVKKISQ | 0.047 ± 0.075
51 | MSAKKSPEELKGIFEKYAAKEGDPNQLSKEELKLLLQTEFPSLLKGPSTLDNLFEELDKNGDGEVSFEEFQVLVKKISQ | -0.002 ± 0.08
52 | MSAKKSPEELKGIFEKYAAKEGDPNQLSKEELKLLLQTEFPSLLKGPSTLDGLFEELDKNGDGEVSFEEFQVLVKKISQ | 0.026 ± 0.07
53 | MSAKKSPEELKGIFEKYAAKEGDPNQLSKEELKLLLQTEFPSLLKGPSTLDYLFEELDKNGDGEVSFEEFQVLVKKISQ | -0.108 ± 0.08
54 | MSAKKSPEELKGIFEKYAAKEGDPNQLSKEELKLLLQTEFPSLLKGPSTLDLLFEELDKNGDGEVSFEEFQVLVKKISQ | -0.001 ± 0.063
55 | MSAKKSPEELKGIFEKYAAKEGDPNQLSKEELKLLLQTEFPSLLKGPSTLDSLFEELDKNGDGEVSFEEFQVLVKKISQ | -0.009 ± 0.063
56 | MSAKKSPEELKGIFEKYAAKEGDPNQLSKEELKLLLQTEFPSLLKGPSTLDPLFEELDKNGDGEVSFEEFQVLVKKISQ | -0.037 ± 0.071
57 | MSAKKSPEELKGIFEKYAAKEGDPNQLSKEELKLLLQTEFPSLLKGPSTLDMLFEELDKNGDGEVSFEEFQVLVKKISQ | -0.031 ± 0.079
58 | MSAKKSPEELKGIFEKYAAKEGDPNQLSKEELKLLLQTEFPSLLKGPSTLDVLFEELDKNGDGEVSFEEFQVLVKKISQ | -0.024 ± 0.064
59 | MSAKKSPEELKGIFEKYAAKEGDPNQLSKEELKLLLQTEFPSLLKGPSTLDTLFEELDKNGDGEVSFEEFQVLVKKISQ | 0.064 ± 0.069
60 | MSAKKSPEELKGIFEKYAAKEGDPNQLSKEELKLLLQTEFPSLLKGPSTLDWLFEELDKNGDGEVSFEEFQVLVKKISQ | -0.084 ± 0.08
61 | MSAKKSPEELKGIFEKYAAKEGDPNQLSKEELKLLLQTEFPSLLKGPSTLDALFEELDKNGDGEVSFEEFQVLVKKISQ | -0.005 ± 0.066
62 | MSAKKSPEELKGIFEKYAAKEGDPNQLSKEELKLLLQTEFPSLLKGPSTLDHLFEELDKNGDGEVSFEEFQVLVKKISQ | 0.04 ± 0.086
63 | MSAKKSPEELKGIFEKYAAKEGDPNQLSKEELKLLLQTEFPSLLKGPSTLDRLFEELDKNGDGEVSFEEFQVLVKKISQ | -0.046 ± 0.063
64 | MSAKKSPEELKGIFEKYAAKEGDPNQLSKEELKLLLQTEFPSLLKGPSTLDCLFEELDKNGDGEVSFEEFQVLVKKISQ | -0.122 ± 0.085
65 | MSAKKSPEELKGIFEKYAAKEGDPNQLSKEELKLLLQTEFPSLLKGPSTLDILFEELDKNGDGEVSFEEFQVLVKKISQ | -0.042 ± 0.081
66 | MSAKKSPEELKGIFEKYAAKEGDPNQLSKEELKLLLQTEFPSLLKGPSTLDQLFEELDKNGDGEVSFEEFQVLVKKISQ | -0.023 ± 0.079
67 | MSAKKSPEELKGIFEKYAAKEGDPNQLSKEELKLLLQTEFPSLLKGPSTLDDLFEELDKNGDGEVSFEEFQVLVKKISQ | -0.056 ± 0.084
68 | MSAKKSPEELKGIFEKYAAKEGDPNQLSKEELKLLLQTEFPSLLKGPSTLDFLFEELDKNGDGEVSFEEFQVLVKKISQ | -0.068 ± 0.084
69 | MSAKKSPEELKGIFEKYAAKEGDPNQLSKEELKLLLQTEFPSLLKGPSTLDKLFEELDKNGDGEVSFEEFQVLVKKISQ | 0.022 ± 0.077
